Results on 1 molecule are retold here after article PMC6754406, “Ran pathway-independent regulation of mitotic Golgi disassembly by Importin-α” (Nature Communications, 2019).

In one assay the target is p115-CTD (a.a. 780–930). The assay can be described thus: Isothermal titration calorimetry (ITC), p115-CTD. To be noted: ITC (MicroCal iTC200), 25 °C, 20 mM HEPES pH 7.4, 1 mM DTT, 50 mM NaCl; one-sites binding model. The source says:
Phosphorylation of GM130 on Ser-25 is correlated with p115 dissociation, with this process appearing to be specific to mitosis and being responsible for reduction of p115-mediated vesicle fusion to Golgi membranes[5]–[7],[9],[10]. The N-terminal region of GM130 and the p115 C-terminus interact[11],[12], so we purified recombinant proteins containing these two regions and then assessed their binding affinity by isothermal titration calorimetry (ITC). The wild type GM130 N-terminal region (a.a. 1-85; hereafter GM130-WT) directly bound p115 (a.a. 780–930; hereafter p115-CTD) (Fig. 1a). Furthermore, we examined if GM130 phosphorylation reduces the binding affinity for p115. […] We found in competition-binding assays that p115-CTD pulldown by GST-GM130-S25D was reduced when we added increasing amounts of Importin-α lacking the IBB domain (a.a. 70–524; hereafter Importin-α(ΔIBB)) (Fig. 1c). […]
To purify p115 (a.a. 780–930), cells containing p115 (a.a. […]) were resuspended in a buffer containing 50 mM K-phosphate (pH 7.4), 150 mM NaCl, and 2 mM β-mercaptoethanol. […] Fractions containing p115 protein were pooled and loaded into SEC (Superdex 75 16/600) and analyzed by SDS–PAGE. […]
Binding affinities of different GM130 proteins to Importin-α and Importin-β were measured by ITC (MicroCal iTC200). […] Protein concentrations were determined spectrophotometrically with respective extinction coefficients. […]

The test system of assay [1] is Importin-β (HEK293T cell lysate). The assay can be described thus: GST pulldown of Importin-β from HEK293T cell lysates. In kind it is binding. The procedure: HEK293T cells were lysed in RIPA buffer containing 50 mM Tris, 150 mM NaCl, 1% NP-40, 1% sodium deoxycholate, 0.1% SDS, 1 mM phenylmethyl sulphonyl fluoride, 1 μg/ml aprotinin, and 1 μg/ml leupeptin. Supernatants were collected after centrifugation at 21,000×g for 10 min at 4 °C. Cell lysates were incubated with 5 µM of GST-GM130-WT, GST-GM130-S25D, or GST-GM130-S25D/K34A, and glutathione-coupled sepharose beads (GE Healthcare). After three pre-washes with buffer containing 150 mM NaCl, proteins were eluted using a buffer containing 50 mM of reduced glutathione. Eluted proteins were analyzed by SDS–PAGE, followed by Western blotting using antibodies against GM130 (Abcam ab52649), Importin-α (R&D Systems MAB6207), and Importin-β (Abcam ab2811). Uncropped scans of Western blots are provided in Supplementary Fig. 7.
Sup ple me ntary Figure 3. GM 130 is resistant to IBB displacement upon in teracting with […]
a-d, a, SE C (Superdex 200) elution profile for full-length Importin-α•GST-GM130-S25D (re d line ), full-length Importin-α (blue line), an d G ST-GM130-WT (green line). […] Th e v o i d volum e (Vo) is indicated. e, Western blotting analysis of Importin-α pull-down by GST-GM130-WT and GST-GM130-S25D from HEK293T ce l l l ys at es. […] Data repres ent mean ± standard deviation from three independent experiments. […]

B1: GM130: GM130 (recombinant N-terminal region), variant not specified at the place (protein)
chain: MWPQPRLPPRPAMSEETRQSKLAAAKKKLREYQQRNSPGVPTGAKKKKKIKNGSNPETTTSGGCHSPEDTPKDNAATLQPSDDTVLPGGVPSPGASLTSMAASQNHDADNVPNLMDETKTFSSTESLRQLSQQLNGLVCESATCVNGEGPASSANLKDLESRYQQLAVALDSSYVTNKQLNITIEKLKQQNQEITDQLEEEKKECHQKQGALREQLQVHIQTIGILVSEKAELQTALAHTQHAARQKEGESEDLASRLQYSRRRVGELERALSAVSTQQKKADRYNKELTKERDALRLELYKNTQSNEDLKQEKSELEEKLRVLVTEKAGMQLNLEELQKKLEMTELLLQQFSSRCEAPDANQQLQQAMEERAQLEAHLGQVMESVRQLQMERDKYAENLKGESAMWRQRMQQMSEQVHTLREEKECSMSRVQELETSLAELRNQMAEPPPPEPPAGPSEVEQQLQAEAEHLRKELEGLAGQLQAQVQDNEGLSRLNREQEERLLELERAAELWGEQAEARRQILETMQNDRTTISRALSQNRELKEQLAELQSGFVKLTNENMEITSALQSEQHVKRELGKKLGELQEKLSELKETVELKSQEAQSLQQQRDQYLGHLQQYVAAYQQLTSEKEVLHNQLLLQTQLVDQLQQQEAQGKAVAEMARQELQETQERLEAATQQNQQLRAQLSLMAHPGEGDGLDREEEEDEEEEEEEAVAVPQPMPSIPEDLESREAMVAFFNSAVASAEEEQARLRGQLKEQRVRCRRLAHLLASAQKEPEAAAPAPGTGGDSVCGETHRALQGAMEKLQSRFMELMQEKADLKERVEELEHRCIQLSGETDTIGEYIALYQSQRAVLKERHREKEEYISRLAQDKEEMKVKLLELQELVLRLVGDRNEWHGRFLAAAQNPADEPTSGAPAPQELGAANQQGDLCEVSLAGSVEPAQGEAREGSPRDNPTAQQIMQLLREMQNPRERPGLGSNPCIPFFYRADENDEVKITVI
The molecule B1 registered a Kd on p115-CTD (a.a. 780–930) of roughly 980 nM. Moreover, the “Importin-α pulled down more than Importin-β” value in assay [1] is ~ 10 -fold. Moreover, in assay [1] (same acquisition conditions), the “Western blot signal of Importin-β reduced compared to Importin-α FL” value was “more than 10 -fold”.
